Assay results: US20220380463A1
Changes are numbered by the printed parent chain.

B1: SAD10320_P02_E05 (antibody, V domains shown)
VH: QVQLVQSGAEVKKPGASVKVSCKASGFNIKDYYMHWVRQAPGQRLEWMGWIDLENANTIYDAKFQGRVTITRDTSASTAYMELSSLRSEDTAVYYCARDMHGRYFYDVWGQGTLVTVSS
VL: DIVMTQSPDSLAVSLGERATINCKSSQSLLNARTGKNYLAWYQQKPGQPPKLLIYWASTRESGVPDRFSGSGSGTDFTLTISSLQAEDVAVYYCKQSEHRRTFGGGTKVEIK
B2: SAD10320_P03_E07 (antibody, V domains shown)
VH: B1 VH with M100A, H101V, G102H
VL: B1 VL with E98Y, R100P
B3: SAD10320_P04_A11 (antibody, V domains shown)
VH: B1 VH with E46Q, M100A, H101R, G102H
VL: B1 VL with E98Y, H99S, R100H, R101G
B4: SAD10320_P03_F08 (antibody, V domains shown)
VH: B1 VH with M100A, H101Y, R103H, Y104D
VL: B1 VL with T34P, E98Y, H99S
B5: SAD10320_P03_H08 (antibody, V domains shown)
VH: B1 VH with M100A, H101Y, R103H, Y104V
VL: B1 VL with R33S, G35A, E98Y, H99R, R100H
B6: SAD10320_P03_D08 (antibody, V domains shown)
VH: B1 VH with M100A, H101Y, R103H, Y104Q
VL: B1 VL with E98Y, R100T
B7: SAD10320_P04_D12 (antibody, V domains shown)
VH: B1 VH with M100A, H101Y, R103H, Y104D
VL: B1 VL with E98Y, H99S, R100H
B8: SAD10320_P03_C09 (antibody, V domains shown)
VH: B1 VH with K23E, M100A, H101Y, R103H, Y104V
VL: B1 VL with E98Y, H99L, R100H
B9: SAD10320_P03_F09 (antibody, V domains shown)
VH: B1 VH with M100A, H101Y, R103H, Y104D
VL: B1 VL with E98Y
B10: SAD10320_P04_F10 (antibody, V domains shown)
VH: B1 VH with R44T, E46D, M100A, H101Y, Y104N, F105H
VL: B1 VL with T34P, E98Y, H99L, R100H
B11: SAD10320_P04_E11 (antibody, V domains shown)
VH: B1 VH with M100A, H101Y, R103H, Y104D
VL: B1 VL with E98Y, H99G, R100H
B12: SAD10320_P02_D06 (antibody, V domains shown)
VH: B1 VH with L45P, E46A, M100A, H101Y, R103H, Y104G
VL: B1 VL with E98Y, H99G, R100H
B13: SAD10320_P04_D11 (antibody, V domains shown)
VH: B1 VH with E46Q, M100A, H101Y, R103H, Y104V
VL: B1 VL with E98Y, R100H
B14: SAD10320_P04_G11 (antibody, V domains shown)
VH: B1 VH with M100A, H101Y, G102R, R103H, Y104E
VL: B1 VL with E98Y, H99Y, R100H
B15: SAD10320_P03_A09 (antibody, V domains shown)
VH: B1 VH with M100A, H101Y, R103H, Y104V
VL: B1 VL with E98S
B16: SAD10320_P02_A06 (antibody, V domains shown)
VH: B1 VH with E46P, M100A, G102E
VL: B1 VL with E98H, H99L
B17: SAD10320_P04_F11 (antibody, V domains shown)
VH: B1 VH with M100A, H101Y, R103H, Y104E
VL: B1 VL with S97G, E98H, H99S
B18: SAD10320_P04_E12 (antibody, V domains shown)
VH: B1 VH with M100A, H101Y, R103H, Y104T
VL: B1 VL with E98Y, R100V
B19: SAD10320_P03_C08 (antibody, V domains shown)
VH: B1 VH with K23E, R44T, E46A, M100A, H101Y, R103H, Y104V
VL: B1 VL with E98Y, H99L, R100H
B20: SAD10320_P04_C10 (antibody, V domains shown)
VH: B1 VH with M100A, H101Y, R103H, Y104A
VL: B1 VL with E98Y, R100Q
B21: SAD10320_P04_A12 (antibody, V domains shown)
VH: B1 VH with M100A, H101Y, R103H, Y104V
VL: B1 VL with E98Y, R100H
B22: SAD10320_P02_H06 (antibody, V domains shown)
VH: B1 VH with M100A, H101Y, Y104N, F105H
VL: B1 VL with N37S, E98Y, H99V, R100H

Target: cynomolgus CD3εδ Fc heterodimer (Cy CD3ε Fc / CD3δ Fc-HIS) (cynomolgus) (UniProt Q95LI8)
Assay: BLI (ForteBio), pH 6.0

Sequence of cynomolgus CD3εδ Fc heterodimer (Cy CD3ε Fc / CD3δ Fc-HIS) (cynomolgus) (chain, as listed by the source mutant, chain 1 of 2): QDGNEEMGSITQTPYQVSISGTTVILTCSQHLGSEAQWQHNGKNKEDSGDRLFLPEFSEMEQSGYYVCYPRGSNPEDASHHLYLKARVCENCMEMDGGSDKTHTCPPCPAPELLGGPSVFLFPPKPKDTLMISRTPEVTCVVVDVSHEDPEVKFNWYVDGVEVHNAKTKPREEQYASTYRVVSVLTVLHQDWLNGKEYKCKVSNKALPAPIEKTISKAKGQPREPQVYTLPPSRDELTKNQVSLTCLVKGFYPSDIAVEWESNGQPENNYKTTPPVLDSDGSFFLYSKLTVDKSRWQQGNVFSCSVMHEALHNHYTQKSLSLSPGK
Sequence of cynomolgus CD3εδ Fc heterodimer (Cy CD3ε Fc / CD3δ Fc-HIS) (cynomolgus) (Q95LI8 22-100, stated change not applied, chain 2 of 2): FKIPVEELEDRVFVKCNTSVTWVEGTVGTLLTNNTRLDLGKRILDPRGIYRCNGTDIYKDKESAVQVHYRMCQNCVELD

Binder	Kd [nM]	kon [M⁻¹ s⁻¹]
B1	14.5	219000
B2	33.8	207000
B3	29.4	252000
B4	15	179000
B5	181	82700
B6	7.76	249000
B7	13.9	186000
B8	31.6	161000
B9	37	195000
B10	8.51	281000
B11	20.1	148000
B12	23.4	265000
B13	16.9	200000
B14	15.7	176000
B15	14.6	199000
B16	11.6	228000
B17	9.55	201000
B18	79.8	136000
B19	323	46900
B20	168	111000
B21	240	69700
B22	10.5	268000
